For assay [1], the target named is T1, immobilized human fibrinogen (human, UniProt P02671 20-629; P02675 31-491; P02679 27-437, limits assumed).
T1 sequence (looked up) 1: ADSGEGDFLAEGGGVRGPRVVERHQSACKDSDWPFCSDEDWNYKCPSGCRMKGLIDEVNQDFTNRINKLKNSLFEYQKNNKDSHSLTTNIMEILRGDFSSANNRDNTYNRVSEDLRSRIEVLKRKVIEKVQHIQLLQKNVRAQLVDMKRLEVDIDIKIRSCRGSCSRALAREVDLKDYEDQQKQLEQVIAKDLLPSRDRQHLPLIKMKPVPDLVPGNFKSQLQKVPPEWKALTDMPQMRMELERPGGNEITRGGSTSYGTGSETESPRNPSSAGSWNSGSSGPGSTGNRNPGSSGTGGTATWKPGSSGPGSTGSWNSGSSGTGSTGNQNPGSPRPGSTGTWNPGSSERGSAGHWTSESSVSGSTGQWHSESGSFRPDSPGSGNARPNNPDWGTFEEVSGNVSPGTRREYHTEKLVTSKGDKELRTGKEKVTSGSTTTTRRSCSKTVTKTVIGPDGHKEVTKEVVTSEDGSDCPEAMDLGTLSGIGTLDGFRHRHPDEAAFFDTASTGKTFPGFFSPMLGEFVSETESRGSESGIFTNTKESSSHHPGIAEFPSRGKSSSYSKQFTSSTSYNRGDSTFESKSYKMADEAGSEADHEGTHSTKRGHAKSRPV
T1 sequence (looked up) 2: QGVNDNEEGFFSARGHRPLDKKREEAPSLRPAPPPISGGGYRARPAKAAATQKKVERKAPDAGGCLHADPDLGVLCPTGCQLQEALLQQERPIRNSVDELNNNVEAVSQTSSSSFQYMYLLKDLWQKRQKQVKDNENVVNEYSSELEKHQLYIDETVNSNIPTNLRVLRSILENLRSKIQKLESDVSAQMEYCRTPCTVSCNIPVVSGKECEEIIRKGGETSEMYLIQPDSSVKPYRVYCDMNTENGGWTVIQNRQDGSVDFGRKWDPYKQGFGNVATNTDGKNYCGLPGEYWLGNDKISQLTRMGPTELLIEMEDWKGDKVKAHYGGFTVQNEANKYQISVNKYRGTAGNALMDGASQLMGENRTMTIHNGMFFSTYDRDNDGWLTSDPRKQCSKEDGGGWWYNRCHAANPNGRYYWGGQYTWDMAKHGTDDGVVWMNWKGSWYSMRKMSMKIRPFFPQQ
T1 sequence (looked up) 3: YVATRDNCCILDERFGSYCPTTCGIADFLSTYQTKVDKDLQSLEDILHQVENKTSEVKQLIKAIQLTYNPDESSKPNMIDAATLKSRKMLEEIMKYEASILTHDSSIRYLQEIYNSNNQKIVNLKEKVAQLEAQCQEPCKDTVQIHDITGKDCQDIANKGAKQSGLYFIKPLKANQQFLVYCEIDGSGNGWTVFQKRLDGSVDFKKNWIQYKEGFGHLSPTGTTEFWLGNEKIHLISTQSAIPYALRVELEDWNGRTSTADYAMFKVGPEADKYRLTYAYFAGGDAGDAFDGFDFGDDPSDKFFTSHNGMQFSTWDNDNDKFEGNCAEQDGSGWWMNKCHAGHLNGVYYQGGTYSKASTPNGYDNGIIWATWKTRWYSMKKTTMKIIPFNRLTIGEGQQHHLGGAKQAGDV
Put plainly: ELISA, increasing A2 on immobilized human fibrin(ogen), anti-His detection; half-maximal binding.

Assay [2] deals with T2, multimeric von Willebrand factor purified from plasma or cryoprecipitate (UniProt P04275 764-2813).
T2 construct: mature; Disulfide-linked multimer of many subunits; number of subunits not fixed; Glycosylated; also called VWF; full length VWF
As to the kind of experiment: binding of A2 to full length VWF; half-maximal binding.

Another assay deals with T3, polymerized human fibrin (human, UniProt P02671 36-629; P02675 45-491; P02679 27-437, limits assumed).
T3 construct: Immobilized polymerized fibrin; preparation not described
T3 sequence (looked up) 1: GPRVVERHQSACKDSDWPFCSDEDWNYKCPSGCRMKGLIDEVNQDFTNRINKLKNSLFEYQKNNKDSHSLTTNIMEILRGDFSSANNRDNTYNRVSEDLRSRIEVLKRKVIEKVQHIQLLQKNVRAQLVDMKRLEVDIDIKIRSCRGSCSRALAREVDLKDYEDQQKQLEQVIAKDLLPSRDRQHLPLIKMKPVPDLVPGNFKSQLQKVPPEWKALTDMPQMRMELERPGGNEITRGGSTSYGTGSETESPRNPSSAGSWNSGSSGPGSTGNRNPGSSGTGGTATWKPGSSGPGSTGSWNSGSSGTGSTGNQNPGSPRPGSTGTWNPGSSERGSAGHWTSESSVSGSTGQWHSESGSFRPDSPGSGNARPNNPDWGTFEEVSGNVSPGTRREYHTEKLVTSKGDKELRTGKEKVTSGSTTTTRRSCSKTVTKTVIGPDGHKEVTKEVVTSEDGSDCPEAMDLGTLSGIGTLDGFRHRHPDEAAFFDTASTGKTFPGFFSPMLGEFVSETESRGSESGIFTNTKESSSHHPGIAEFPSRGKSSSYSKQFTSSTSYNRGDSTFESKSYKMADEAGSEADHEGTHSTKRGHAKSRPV
T3 sequence (looked up) 2: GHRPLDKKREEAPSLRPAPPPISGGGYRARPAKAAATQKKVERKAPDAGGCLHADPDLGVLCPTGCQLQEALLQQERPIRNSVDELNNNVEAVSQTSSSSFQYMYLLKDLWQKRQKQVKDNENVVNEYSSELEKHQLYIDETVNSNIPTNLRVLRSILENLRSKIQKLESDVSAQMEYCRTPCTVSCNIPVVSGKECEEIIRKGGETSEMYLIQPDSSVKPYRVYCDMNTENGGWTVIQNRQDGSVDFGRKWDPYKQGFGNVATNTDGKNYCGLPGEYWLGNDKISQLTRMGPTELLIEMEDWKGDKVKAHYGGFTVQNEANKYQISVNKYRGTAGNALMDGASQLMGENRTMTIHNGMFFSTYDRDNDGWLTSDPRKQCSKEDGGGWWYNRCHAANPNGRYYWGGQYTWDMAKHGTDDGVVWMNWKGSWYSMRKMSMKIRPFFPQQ
T3 sequence (looked up) 3: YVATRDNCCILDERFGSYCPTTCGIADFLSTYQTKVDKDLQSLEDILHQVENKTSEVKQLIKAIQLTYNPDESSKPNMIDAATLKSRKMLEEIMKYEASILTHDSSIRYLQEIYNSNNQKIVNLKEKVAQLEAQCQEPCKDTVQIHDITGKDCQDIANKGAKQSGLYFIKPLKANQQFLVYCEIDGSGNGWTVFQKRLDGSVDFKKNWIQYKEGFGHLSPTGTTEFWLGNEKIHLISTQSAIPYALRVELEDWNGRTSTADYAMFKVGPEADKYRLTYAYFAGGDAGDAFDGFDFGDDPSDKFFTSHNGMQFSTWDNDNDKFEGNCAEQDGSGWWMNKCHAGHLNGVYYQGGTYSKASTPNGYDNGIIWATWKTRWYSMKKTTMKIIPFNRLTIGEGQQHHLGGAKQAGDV
Put plainly: ELISA, increasing A2 on immobilized polymerized human fibrin, anti-His detection; half-maximal binding.

Assay [3] has as its target T4, recombinant VWF-A1 domain polypeptide (amino acids Q1238-P1471) (human, UniProt P04275 1238-1471).
T4 construct: range 1238-1471; Expressed in E. coli with an N-terminal His tag; also called A1 polypeptide; A1 protein; not shown: N-terminal His tag from the vector
As to the kind of experiment: binding of A2 to immobilized A1 domain polypeptide; half-maximal binding.

Assay [4] deals with T4, recombinant VWF-A1 domain polypeptide …. Put plainly: binding of A2 to A1 domain polypeptide; half-maximal binding.
For assay [5] the target is unchanged. Put plainly: inhibition by A2 of binding of A1 domain (0.25 µM) to immobilized fixed platelets (GPIbα), static conditions.
Assay [6] deals with T2, multimeric von Willebrand factor …. Put plainly: binding of A2 to immobilized full length VWF; half-maximal binding.
The target of assay [7] is T4, recombinant VWF-A1 domain polypeptide …. Put plainly: ELISA, increasing A2 on immobilized A1 polypeptide, Anti-A2 detection; half-maximal binding. For orientation: An ELISA detects its analyte on a solid surface through an enzyme-linked reagent.
Assay [8] shares this target. As to the kind of experiment: ELISA, A2 on immobilized A1; apparent KD.
Assay [9] deals with T5, recombinant human vimentin (human, UniProt P08670 1-466, limits assumed).
T5 construct: also called immobilized vimentin
T5 sequence (P08670 whole entry): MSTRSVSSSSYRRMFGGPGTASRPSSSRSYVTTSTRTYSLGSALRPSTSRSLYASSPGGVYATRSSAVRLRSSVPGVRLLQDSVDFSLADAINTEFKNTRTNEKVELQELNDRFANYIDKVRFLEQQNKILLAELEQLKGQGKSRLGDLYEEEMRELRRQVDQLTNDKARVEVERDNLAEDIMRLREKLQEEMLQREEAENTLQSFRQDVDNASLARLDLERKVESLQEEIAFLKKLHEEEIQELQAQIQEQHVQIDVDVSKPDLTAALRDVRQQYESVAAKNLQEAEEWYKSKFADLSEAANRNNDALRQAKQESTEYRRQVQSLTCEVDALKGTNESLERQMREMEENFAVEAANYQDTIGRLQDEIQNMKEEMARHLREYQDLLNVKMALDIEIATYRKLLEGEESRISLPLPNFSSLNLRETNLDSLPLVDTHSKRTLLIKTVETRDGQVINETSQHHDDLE
Put plainly: ELISA, A2 on immobilized recombinant human vimentin, detected with Anti-A2 or VP-1.

In assay [10] the target is T2, multimeric von Willebrand factor …. As to the kind of experiment: ELISA, A2 on immobilized VWF; apparent KD.
The target is the same in assay [11]. Put plainly: ELISA, increasing A2 on immobilized plasma VWF, anti-His detection; half-maximal binding.
Assay [12] has as its target T5, recombinant human vimentin. Put plainly: ELISA, A2 fragments on immobilized vimentin.

What is called EC50 is the concentration giving half of the maximal effect. By IC50 is commonly meant the point on the concentration scale where inhibition reaches its midpoint.

B1: recombinant VWF-A2 domain polypeptide (amino acids G1481-R1668) (other)
chain: GLLGVSTLGPKRNSMVLDVAFVLEGSDKIGEADFNRSKEFMEEVIQRMDVGQDSIHVTVLQYSYMVTVEYPFSEAQSKGDILQRVREIRYQGGNRTNTGLALRYLSDHSFLVSQGDREQAPNLVYMVTGNPASDEIKRLPGDIQVVPIGVGPNANVQELERIGWPNAPILIQDFETLPREAPDLVLQR
notes: Expressed in E. coli as a fusion protein with a His tag at the N terminus; monomeric on SDS-PAGE; also called A2 protein; VWF-A2 protein; not shown: N-terminal His tag from the vector
As to B1, the 50% effective concentration (EC50) was found to be 150 nM in assay [1]; 160 nM in assay [2]; 150 nM with polymerized human fibrin; 65 nM in [3]; 60 nM in assay [4]; 190 nM in [6]. The EC50 in [7] is approximately 65 nM; in [11] it was approximately 200 nM. The IC50 in assay [5] is 300 nM. Moreover, the Kd is approximately 50 nM in [8] and approximately 200 nM in [10]. The binding result in assay [9] is reported as “binds”.

B2: N-terminal fragment polypeptide of A2 (A2 G1481-Y1605) (other)
chain: GLLGVSTLGPKRNSMVLDVAFVLEGSDKIGEADFNRSKEFMEEVIQRMDVGQDSIHVTVLQYSYMVTVEYPFSEAQSKGDILQRVREIRYQGGNRTNTGLALRYLSDHSFLVSQGDREQAPNLVY
notes: Expressed in bacteria; also called N-terminal (half) of the A2 domain of VWF
For the molecule B2, the binding result in [12] was “binds”.

These data come from patent US20090118161A1 (BAYLOR COLLEGE OF MEDICINE, published 2009).
